Test results reported in IntAct's records for PubMed 32637409.

B1: Mitochondrial Rho GTPase 1 (Homo sapiens), Q8IXI2 (parent)
chain: MKKDVRILLVGEPRVGKTSLIMSLVSEEFPEEVPPRAEEITIPADVTPERVPTHIVDYSEAEQSDEQLHQEISQANVICIVYAVNNKHSIDKVTSRWIPLINERTDKDSRLPLILVGNKSDLVEYSSMETILPIMNQYTEIETCVECSAKNLKNISELFYYAQKAVLHPTGPLYCPEEKEMKPACIKALTRIFKISDQDNDGTLNDAELNFFQRICFNTPLAPQALEDVKNVVRKHISDGVADSGLTLKGFLFLHTLFIQRGRHETTWTVLRRFGYDDDLDLTPEYLFPLLKIPPDCTTELNHHAYLFLQSTFDKHDLDRDCALSPDELKDLFKVFPYIPWGPDVNNTVCTNERGWITYQGFLSQWTLTTYLDVQRCLEYLGYLGYSILTEQESQASAVTVTRDKKIDLQKKQTQRNVFRCNVIGVKNCGKSGVLQALLGRNLMRQKKIREDHKSYYAINTVYVYGQEKYLLLHDISESEFLTEAEIICDVVCLVYDVSNPKSFEYCARIFKQHFMDSRIPCLIVAAKSDLHEVKQEYSISPTDFCRKHKMPPPQAFTCNTADAPSKDIFVKLTTMAMYPHVTQADLKSSTFWLRASFGATVFAVLGFAMYKALLKQR
partner: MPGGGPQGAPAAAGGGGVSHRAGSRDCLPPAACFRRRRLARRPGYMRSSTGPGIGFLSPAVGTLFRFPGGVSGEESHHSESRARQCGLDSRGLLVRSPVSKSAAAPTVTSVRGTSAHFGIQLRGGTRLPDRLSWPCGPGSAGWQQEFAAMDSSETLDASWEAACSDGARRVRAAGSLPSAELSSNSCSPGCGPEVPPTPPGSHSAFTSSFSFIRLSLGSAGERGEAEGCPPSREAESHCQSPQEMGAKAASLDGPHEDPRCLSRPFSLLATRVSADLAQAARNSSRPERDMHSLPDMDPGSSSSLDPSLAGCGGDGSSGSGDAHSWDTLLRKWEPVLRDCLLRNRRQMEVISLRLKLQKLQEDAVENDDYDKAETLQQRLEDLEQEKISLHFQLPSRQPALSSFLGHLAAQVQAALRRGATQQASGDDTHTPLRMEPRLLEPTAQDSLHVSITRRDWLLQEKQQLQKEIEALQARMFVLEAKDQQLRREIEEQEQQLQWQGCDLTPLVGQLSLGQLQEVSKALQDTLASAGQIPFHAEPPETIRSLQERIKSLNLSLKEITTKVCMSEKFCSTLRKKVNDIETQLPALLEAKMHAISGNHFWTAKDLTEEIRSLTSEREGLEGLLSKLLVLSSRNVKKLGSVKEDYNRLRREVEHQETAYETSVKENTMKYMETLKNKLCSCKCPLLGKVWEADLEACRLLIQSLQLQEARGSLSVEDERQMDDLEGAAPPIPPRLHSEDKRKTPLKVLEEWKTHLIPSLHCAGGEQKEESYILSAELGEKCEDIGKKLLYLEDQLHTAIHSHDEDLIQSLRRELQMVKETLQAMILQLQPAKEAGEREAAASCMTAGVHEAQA

Variants of: B1
Conditions: with disc1_human DISC1, Q9NRI5

Question: Which “effect of a mutation on the interaction” value does the source give for P13V here?
Answer: The value was “increasing interaction”.

Question: T18N was tested. Which “effect of a mutation on the interaction” value did it give?
Answer: Its value is “with no effect”.
